Test [1] addresses Biotin-conjugated ^MBPPBD (immobilised ligand of BLI) (human) (UniProt P53350). Nature of the test: BLI; biotin-conjugated ^MBPPBD immobilised on streptavidin sensors, CENP-U variants as analyte; 25 °C, 20 mM HEPES pH 7.5, 2.5% glycerol, 300 mM NaCl, 0.1 mM TCEP, 0.3 g/L BSA, 0.05% Tween20; KD from koff/kon of the global fit.
In test [2] the target is singly phosphorylated pT98 peptide of CENP-U (ITC) (human). Nature of the test: ITC; phosphorylated CENP-U construct in the cell, ^MBPPBD in the syringe; 25 °C, 20 mM Hepes pH 7.5, 300 mM NaCl, 1 mM TCEP, 1% glycerol; one set of sites model. In general terms: In ITC the heat of successive injections is recorded.
The target of test [3] is T1, ^MBPPBD (6xHis-MBP-TEV-PLK1^345-603) (human, UniProt P53350 345-603).
T1 construct: PLK1, human, residues 345-603 (Polo-box domain construct); The plasmids paragraph speaks of expression in insect cells, the purification paragraph of E. coli BL21 (DE3); TEV site between MBP and PLK1; source: E. coli BL21 (DE3), purified (HisTALON, SEC); not shown: MBP, N-terminal, kept
The test is described as above. The settings on record: both partners purified.

The target of test [4] is T1, ^MBPPBD (6xHis-MBP-TEV-PLK1^345-603). Nature of the test: SEC; analytical SEC, Superdex 200 5/150, 20 mM Bis-tris/HCl pH 6.5, 250 mM NaCl, 5% glycerol, 1 mM TCEP, 4 °C; PBD added 2:1 to the CENP-U variant (10 µM ^MBPPBD and 5 µM ^MBPCENP-U^58-114 in Fig. 1C). The settings on record: both partners purified.
The target in test [5] is T2, Biotin-conjugated ^MBPPBD (immobilised ligand of BLI) (human, UniProt P53350 345-603, biotin (Gly-Gly-Gly-Gly-Biotin conjugated to the C-terminal PLPETG peptide by sortase A)).
T2 construct: PLK1, human, residues 345-603 (Polo-box domain construct); As m1 with a C-terminal PLPETG peptide used for biotin labelling; held on streptavidin sensors; also called immobilized PBD; source: E. coli BL21 (DE3), purified (HisTALON, SEC), biotin-labelled with sortase A; not shown: MBP, N-terminal, kept; PLPETG peptide conjugated with Gly-Gly-Gly-Gly-Biotin, C-terminal, kept
Put plainly: BLI; biotin-conjugated ^MBPPBD immobilised on streptavidin sensors, CENP-U variants as analyte; 25 °C, 20 mM HEPES pH 7.5, 2.5% glycerol, 300 mM NaCl, 0.1 mM TCEP, 0.3 g/L BSA, 0.05% Tween20; KD from koff/kon of the global fit. The settings on record: both partners purified. (In BLI a coated tip is dipped into the sample, and binding shifts an interference pattern.)

The target of test [6] is T1, ^MBPPBD (6xHis-MBP-TEV-PLK1^345-603). Nature of the test: BLI; biotin-conjugated phosphorylated ^MBPCENP-U^58-114 immobilised on streptavidin sensors, ^MBPPBD or ^6HisPLK1^FL as analyte; 25 °C, 20 mM HEPES pH 7.5, 2.5% glycerol, 300 mM NaCl, 0.1 mM TCEP, 0.3 g/L BSA, 0.05% Tween20; one site for pT78, two sites (KD1, KD2) for pT98 and pT78/pT98. The settings on record: both partners purified.

Test [7] addresses T3, ^6HisPLK1^FL (6xHis-TEV-PLK1, full length) (human, UniProt P53350 1-603).
T3 construct: PLK1, human, 603 residues, full length; also called full length PLK1; source: insect cells (plasmid from a previous study), purified (HisTALON, SEC); not shown: 6xHis, N-terminal, kept
The description is as above. The settings on record: both partners purified.

Non-standard residues stand in square brackets, D forms with d. No end group written: not given here. pT = C[C@@H](OP(=O)(O)O)[C@H](N)C(=O)O; MBP = maltose-binding protein

Data on eleven molecules can be found in publication PMC13161223, “Molecular anatomy of PLK1 master docking motifs” (Nature Communications, 2026).

Biotin-conjugated ^MBPPBD (immobilised ligand of BLI) (human), sequence (P53350 345-603): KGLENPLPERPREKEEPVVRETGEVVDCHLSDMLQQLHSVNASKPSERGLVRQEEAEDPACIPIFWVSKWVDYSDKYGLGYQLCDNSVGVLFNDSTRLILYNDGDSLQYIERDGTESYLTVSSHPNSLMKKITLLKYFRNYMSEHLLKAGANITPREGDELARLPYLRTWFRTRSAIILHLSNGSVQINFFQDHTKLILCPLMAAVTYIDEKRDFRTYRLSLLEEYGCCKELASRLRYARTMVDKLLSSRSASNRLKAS
T1 sequence (P53350 345-603): as above
T2 sequence (P53350 345-603): as above
T3 sequence (P53350 whole entry): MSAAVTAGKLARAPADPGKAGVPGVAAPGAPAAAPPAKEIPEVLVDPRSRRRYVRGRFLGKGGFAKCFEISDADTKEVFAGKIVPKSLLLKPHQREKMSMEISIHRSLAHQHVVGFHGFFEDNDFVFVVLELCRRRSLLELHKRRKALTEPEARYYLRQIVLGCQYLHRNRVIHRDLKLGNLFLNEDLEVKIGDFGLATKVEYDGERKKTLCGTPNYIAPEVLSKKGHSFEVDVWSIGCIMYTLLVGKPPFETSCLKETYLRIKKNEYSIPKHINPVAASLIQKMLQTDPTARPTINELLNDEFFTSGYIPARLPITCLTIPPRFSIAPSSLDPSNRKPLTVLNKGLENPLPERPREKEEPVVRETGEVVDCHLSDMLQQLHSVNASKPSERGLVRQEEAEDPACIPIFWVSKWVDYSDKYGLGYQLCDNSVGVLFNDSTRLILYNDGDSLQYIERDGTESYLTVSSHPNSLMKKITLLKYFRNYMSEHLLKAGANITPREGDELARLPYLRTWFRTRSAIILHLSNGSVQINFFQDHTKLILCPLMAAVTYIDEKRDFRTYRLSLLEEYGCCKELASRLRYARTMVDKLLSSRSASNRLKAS

Take “^MBPCENP-U^84-114/pT98 (from UniProt Q71F23 84-114) (domain or fragment)”: in test [1], the Kd was determined as 400 nM, the koff turned out to be 0.0028 s⁻¹ and the kon was determined as 7100 M⁻¹ s⁻¹.

In turn, “^MBPPBD (6xHis-MBP-TEV-PLK1^345-603) (from UniProt P53350 345-603) (domain or fragment)” showed a Kd in test [2] of 380 nM.

LGENEKDEETYETFDPPLHS[pT]AIYAD (domain or fragment) [singly phosphorylated pT78 peptide of CENP-U (ITC)] had a Kd in test [3] of roughly 1.9 nM.

B1: ^MBPCENP-U^58-114 (6xHis-MBP-TEV-CENP-U^58-114), unphosphorylated (domain or fragment, human, UniProt Q71F23 58-114, looked up)
chain: {6xHis-MBP-TEV}-LGENEKDEETYETFDPPLHSTAIYADEEEFSKHCGLSLSSTPPGKEAKRSSDTSGNE
notes: The plasmids paragraph speaks of expression in insect cells, the purification paragraph of E. coli; source: E. coli BL21 (DE3), purified (HisTALON, Resource Q, SEC); not shown: MBP, N-terminal, kept
For B1, the binding result in test [4] is given as “binds”.

B2: ^MBPCENP-U^58-114/pT78/F87A/T98V (domain or fragment, human, UniProt Q71F23 58-114, looked up)
chain: LGENEKDEETYETFDPPLHS[pT]AIYADEEEASKHCGLSLSSVPPGKEAKRSSDTSGNE
modifications: also: N-terminal MBP fusion protein
notes: source: E. coli BL21 (DE3), purified; phosphorylated in vitro with only PLK1; not shown: MBP, N-terminal, kept
In test [5], B2 had a Kd of 7.2 nM, a koff of 0.001 s⁻¹ and a kon of 140000 M⁻¹ s⁻¹.

B3: ^MBPCENP-U^84-114 F87A, phosphorylated with CDK1 (domain or fragment, human, UniProt Q71F23 84-114, looked up)
chain: EEEASKHCGLSLSS[pT]PPGKEAKRSSDTSGNE
modifications: also: N-terminal MBP fusion protein
notes: also called F87 to alanine mutant of Motif 2; source: E. coli BL21 (DE3), purified; phosphorylated in vitro with CDK1; not shown: MBP, N-terminal, kept
Turning to B3, the binding result in test [4] is “binds”.

B4: biotin-conjugated ^MBPCENP-U^58-114/pT78 (immobilised ligand of BLI) (domain or fragment, human, UniProt Q71F23 58-114, looked up)
chain: LGENEKDEETYETFDPPLHS[pT]AIYADEEEFSKHCGLSLSSTPPGKEAKRSSDTSGNE
modifications: not fully specified (N-terminus); also: N-terminal MBP fusion protein, C-terminal PLPETG tag ligated by sortase A to Gly4-biotin
notes: source: E. coli BL21 (DE3), purified; phosphorylated in vitro with PLK1; biotin-labelled with sortase A; not shown: MBP, N-terminal, kept; PLPETG peptide conjugated with Gly-Gly-Gly-Gly-Biotin, C-terminal, kept
In the case of B4, in test [6], the Kd is 1.9 nM, the koff was determined as 0.00052 s⁻¹ and the kon was 280000 M⁻¹ s⁻¹. In test [7], the affinity, expressed as Kd, was 22 nM; the koff came out at 0.0033 s⁻¹; the kon was 150000 M⁻¹ s⁻¹.

B5: ^MBPCENP-U^58-83 (6xHis-MBP-TEV-CENP-U^58-83), unphosphorylated (domain or fragment, human, UniProt Q71F23 58-83, looked up)
chain: {6xHis-MBP-TEV}-LGENEKDEETYETFDPPLHSTAIYAD
notes: CENP-U (PBIP1), human, residues 58-83 (Motif 1); also called Motif 1; unphosphorylated Motif 1; source: E. coli BL21 (DE3), purified (HisTALON, Resource Q, SEC); not shown: MBP, N-terminal, kept
Take B5: in test [5], the affinity, expressed as Kd, was 10000 nM; the koff is 0.00028 s⁻¹; the kon came out at 28 M⁻¹ s⁻¹.

B6: ^MBPCENP-U^58-83/Y68A/F71A/pT78 (domain or fragment, human, UniProt Q71F23 58-83, looked up)
chain: LGENEKDEETAETADPPLHS[pT]AIYAD
modifications: also: N-terminal MBP fusion protein
notes: CENP-U (PBIP1), human, residues 58-83 (Motif 1); source: E. coli BL21 (DE3), purified; not shown: MBP, N-terminal, kept
In test [5], B6 had a Kd of 230 nM, a koff of 0.011 s⁻¹ and a kon of 47000 M⁻¹ s⁻¹.

B7: ^MBPCENP-U^58-83/F71A/pT78 (domain or fragment, human, UniProt Q71F23 58-83, looked up)
chain: LGENEKDEETYETADPPLHS[pT]AIYAD
modifications: also: N-terminal MBP fusion protein
notes: as for B6
For the molecule B7, in test [5], the Kd was 88 nM, the koff came out at 0.0077 s⁻¹ and the kon came out at 87000 M⁻¹ s⁻¹.

B8: ^MBPCENP-U^58-83/pT78 (domain or fragment, human, UniProt Q71F23 58-83, looked up)
chain: LGENEKDEETYETFDPPLHS[pT]AIYAD
modifications: also: N-terminal MBP fusion protein
notes: CENP-U (PBIP1), human, residues 58-83 (Motif 1); also called PLK1-phosphorylated ^MBPCENP-U^58-83; phosphorylated Motif 1; source: E. coli BL21 (DE3), purified; not shown: MBP, N-terminal, kept
Turning to B8, in test [5], the Kd worked out at 2.5 nM, the koff is 0.00034 s⁻¹ and the kon is 140000 M⁻¹ s⁻¹.

As usually defined, the Kd is a measure of binding affinity in units of concentration. Low readings indicate a tighter complex, high ones a looser complex. As a reminder, the koff is the rate constant with which the complex falls apart. High values mean a short-lived complex, low ones a long-lived complex. By kon is commonly meant the rate constant with which the complex forms. The low end stands for slower complex formation, the high end for faster complex formation.
